Laboratory results taken from article PMC6823245, “Positive Modulation of Angiotensin II Type 1 Receptor–Mediated Signaling by LVV–Hemorphin-7” (Frontiers in Pharmacology, 2019).
Values belong to the molecule of their own block, whether it stands above or below them.

Tests used:
AT1R = settings: ref Li et al., 2018, cited from earlier work
Description: Our seminal finding is of significant importance to hemorphin and GPCR pharmacology and their implication in human physiology. Indeed, in addition to hemorphin’s effect on opioid receptors ([Brantl et al., 1986]; [Davis et al., 1989]; [Liebmann et al., 1989]; [Glämsta et al., 1992]; [Yukhananov et al., 1994]; [Nyberg et al., 1997]; [Szikra et al., 2001]; [Cheng et al., 2012]), we report yet another GPCR member (AT1R) that is a target of hemorphins with the plausible implication in the physiology and pathophysiology of vascular and renal systems. The action of LVV–hemorphin-7 on AT1R is consist ...

[1] = target: T1, AT1R (AT1R-Rluc/Venus-Gαq coupling) (Homo sapiens, UniProt P30556); experiment: BRET between AT1R-Rluc and Venus-Gαq (dose-response / 30 min endpoint) in HEK293 cells; assay type: cell-based; design: expressed in transfected cells; host or cells: HEK293, transient transfection (Lipofectamine 2000)
T1 sequence (P30556 1-359): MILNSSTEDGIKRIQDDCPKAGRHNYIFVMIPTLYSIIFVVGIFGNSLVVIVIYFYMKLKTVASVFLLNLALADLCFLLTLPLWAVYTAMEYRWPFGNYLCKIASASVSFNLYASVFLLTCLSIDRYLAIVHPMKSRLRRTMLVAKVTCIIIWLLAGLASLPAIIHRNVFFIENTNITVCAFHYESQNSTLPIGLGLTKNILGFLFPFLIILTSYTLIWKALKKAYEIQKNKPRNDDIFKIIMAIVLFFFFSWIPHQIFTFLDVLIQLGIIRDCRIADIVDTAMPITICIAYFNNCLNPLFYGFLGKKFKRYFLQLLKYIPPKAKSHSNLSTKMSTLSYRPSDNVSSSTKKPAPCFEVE
Protocol: All assays were carried out 48 h posttransfection.
BRET technology was used for dose–response analysis as previously described ([Ayoub et al., 2015]; [Ayoub, 2016]; [Ayoub et al., 2016]). […] Following treatment, 10 µl of coelenterazine h (Promega) in PBS was added to a final concentration of 5 µM, and BRET measurements were carried out using the Tristar 2 multilabel plate reader (Berthold, Germany) allowing sequential measurements of light emission at 480 and 540 nm.

[2] = target: T1, AT1R (AT1R-Rluc/Venus-Gαq coupling); experiment: Real-time BRET kinetics, AT1R-Rluc and Venus-Gαq in HEK293 cells; settings: 10 µM alone, sequential protocol, after 35 min (Figure 3C)
Protocol: HEK293 cells were maintained at 37°C, 5% CO2 in complete medium (Dulbecco modified Eagle medium (DMEM) containing 0.3 mg/ml glutamine, 100 IU/ml penicillin, and 100 µg/ml streptomycin) supplemented with 10% fetal calf serum (GIBCO BRL, Carlsbad, CA, USA). Transient transfections for BRET were carried out in 96-well plates and IP1 and ERK1/2 assays in six-well plates using Lipofectamine 2000 (Invitrogen). […] The plasmid solution was then mixed with 25 µl of serum-free DMEM containing 0.5 µl of Lipofectamine 2000 and incubated for 20 min at room temperature. Cells (10^5 in 150 µl/well) resuspended in DMEM supplemented with 10% fetal calf serum (FCS) were then incubated with the final DNA-Lipofectamine 2000 mix (50 µl/well) and seeded in 96-well plates. All assays were carried out 48 h posttransfection.
For the real-time BRET kinetics, different protocols were used. Cells were first washed with 50 µl/well of PBS and resuspended in 40 µl/well of PBS containing coelenterazine h (5 µM), and BRET signals were measured in real time for ∼5 min to determine the baseline.
All kinetic and the sigmoidal dose–response curves were fitted to appropriate nonlinear regression equations using GraphPad Prism software (San Diego, CA, USA). Statistical analyses were performed with two-way ANOVA and Tukey multiple-comparisons test to determine statistical significance between the different conditions.

[3] = among hemorphin peptides; ref not attached to the sentence (next sentence: Karelin et al., 1994; Moeller et al., 1997); cited from earlier work
Description: Hemorphins are endogenous hemoglobin-derived peptides that were initially reported to have opiate-like activity. They are normally released from hemoglobin beta-chain during physiological or pathophysiological conditions. These peptides are 4 to 10 amino acids long and share a common Tyr-Pro-Trp-Thr tetrapeptide core (YPWT or hemorphin-4) ([Liebmann et al., 1989]; [Zhao et al., 1995]; [Ivanov et al., 1997]; [Nyberg et al., 1997]). A number of different hemorphin peptides have been identified including hemorphin-4, hemorphin-7, and LVV–hemorphin-4, -6, and -7 ([Brantl et al., 1986]; [Piot et al ...

AT1R (AT1R-WT) = target: T2, AT1R (AT1R-WT) (Homo sapiens, UniProt P30556); settings: 10 µM irbesartan 15 min, then 5 nM AngII ± 10 µM LVV–hemorphin-7, 30 min, 37°C (Figure 5D)
T2 sequence (P30556 1-359): T1 sequence (P30556 1-359)

[4] = target: AT1R-RlucII (angiotensin II type 1 receptor fused to Renilla luciferase) (human) (UniProt P30556)
[5] = target: AT1R-RlucII (angiotensin II type 1 receptor fused to Renilla luciferase) (human) (UniProt P30556); remark: listed apart in the source
[6] = target: AT1R-RlucII (angiotensin II type 1 receptor fused to Renilla luciferase) (human) (UniProt P30556); remark: listed apart in the source
[7] = target: AT1R-RlucII (angiotensin II type 1 receptor fused to Renilla luciferase) (human) (UniProt P30556); remark: listed apart in the source
[8] = target: untagged AT1R (AT1R-WT) (human) (UniProt P30556)

Molecule: NC(CCS)C(=O)O (centres unmarked) [homocysteine]
binding site on AT1R (AT1R; binding experiments): binding of homocysteine to the orthosteric binding site of AT1R
positive allosteric modulation of AT1R (AT1R): PAM of AT1R

Molecule: CC(C)C[C@H](N)C(=O)N[C@H](C(=O)N[C@H](C(=O)N[C@@H](Cc1ccc(O)cc1)C(=O)N1CCC[C@H]1C(=O)N[C@@H](Cc1c[nH]c2ccccc12)C(=O)N[C@H](C(=O)N[C@@H](CCC(N)=O)C(=O)N[C@@H](CCCNC(=N)N)C(=O)N[C@@H](Cc1ccccc1)C(=O)O)[C@@H](C)O)C(C)C)C(C)C [LVV–hemorphin-7]
EC50 of potentiation of AngII-mediated BRET (in words) ([1]; 15 min preincubation, then 10 nM AngII 20 min (Figure 2E)): micromolar range
BRET increase, LVV–hemorphin-7 alone [2]: ~10%
stability [3]: most stable form

Molecule: CCCCC1=NC2(CCCC2)C(=O)N1Cc1ccc(-c2ccccc2-c2nnn[nH]2)cc1 [irbesartan]
inhibition of AngII-mediated BRET signals and of their potentiation by LVV–hemorphin-7 ([1]; 10 µM irbesartan 15 min, then 10 nM AngII ± 10 µM LVV–hemorphin-7, 30 min, 37°C (Figure 4A), n = 3): full inhibition
inhibition of AngII-mediated IP1 production and its potentiation by LVV–hemorphin-7 (AT1R (AT1R-WT)): completely abolished

ERK1/2 phosphorylation (folds over untreated cells), cells coexpressing AT1R-Rluc and Venus-Gαq, cotreatment with 10 nM AngII and 10 µM LVV–hemorphin-7 for 5 min [4]: 6.71 folds
ERK1/2 phosphorylation (folds over untreated cells), cells coexpressing AT1R-Rluc and Venus-Gαq, pretreatment with LVV–hemorphin-7 for 15 min followed by AngII for 5 min [4]: 6.7 folds
Log EC50 of LVV–hemorphin-7 for potentiation of the BRET increase between AT1R-Rluc and Venus-Gαq induced by 10 nM AngII (log (concentration unit not given)) [5]: -5.41
Log EC50 of LVV–hemorphin-7 for potentiation of the BRET increase between AT1R-Rluc and yPET–β-arrestin 2 induced by 10 nM AngII (log (concentration unit not given)) [5]: -5.48
BRET increase in sequential real-time kinetics (AT1R-Rluc with Venus-Gαq or yPET–β-arrestin 2), 10 µM LVV–hemorphin-7 alone, after 35 min [6]: 10%
E max (%) of AngII with LVV–hemorphin-7, BRET dose–response, AT1R-Rluc + Venus-Gαq; AngII without LVV–hemorphin-7 taken as 100% [7]: 109%
E max (%) of AngII with LVV–hemorphin-7, BRET dose–response, AT1R-Rluc + yPET–β-arrestin 2; AngII without LVV–hemorphin-7 taken as 100% [7]: 104%
E max (%) of AngII with LVV–hemorphin-7, BRET kinetics 1 (Figures 3A, B), AT1R-Rluc + Venus-Gαq; 10 nM AngII alone taken as 100% [7]: 263%
E max (%) of AngII with LVV–hemorphin-7, BRET kinetics 1 (Figures 3A, B), AT1R-Rluc + yPET–β-arrestin 2; 10 nM AngII alone taken as 100% [7]: 240%
E max (%) of AngII with LVV–hemorphin-7, BRET kinetics 2 (Figures 3C, D), AT1R-Rluc + Venus-Gαq; 10 nM AngII alone taken as 100% [7]: 171%
E max (%) of AngII with LVV–hemorphin-7, BRET kinetics 2 (Figures 3C, D), AT1R-Rluc + yPET–β-arrestin 2; 10 nM AngII alone taken as 100% [7]: 200%
ERK1/2 phosphorylation (folds over untreated cells), cells expressing AT1R-WT, 10 µM LVV–hemorphin-7 alone, 5 min [8]: 6.74 folds
ERK1/2 phosphorylation (folds over untreated cells), cells expressing AT1R-WT, cotreatment with AngII and LVV–hemorphin-7 [8]: 12.8 folds
Molecule: LVVYPWTQRF [LVV–hemorphin-7]
